Target: acetylcholine receptor
Assay: SPR, AchR immobilized on chip

Binding affinity (RU)	Binder
190	KWRQKR [6mer-2-233]

Target: acetylcholine receptor
Assay: SPR, AchR immobilized on CM5 chip, peptide 10 µM

Binding affinity (RU)	Binder
190	KWRQKR [6mer-2-233]

Target: acetylcholine receptor
Assay: SPR, receptor immobilised on chip, peptide at 10 µM

Binding affinity [RU]	Binder
144	KGLLRR [6mer-2-494]
121	RRLTRK [6mer-2-513]
148	KRQCKK [6mer-2-505]
131	RQRYKK [6mer-2-481]
148	RWFTRR [6mer-2-512]
154	KGQTRR [6mer-2-482]
151	KLVTKK [6mer-2-518]
153	RLRTKK [6mer-2-469]
121	RVFLKK [6mer-2-508]
148	KSYTRR [6mer-2-497]
154	KVQTKK [6mer-2-503]
147	RRFTKK [6mer-2-480]
144	KSFCKR [6mer-2-502]
142	RVISKK [6mer-2-489]
153	RLRRRK [6mer-2-470]
121	KLLCKK [6mer-2-495]
148	KGIRKK [6mer-2-476]
145	RRYQKK [6mer-2-490]
144	RVRYRK [6mer-2-496]

Binding affinity [RU]	Binder
154	RGLTRK [6mer-2-504]
121	KSYTKR [6mer-2-487]
148	RLIQKK [6mer-2-492]
148	RSRLRR [6mer-2-472]
124	RVVLRK [6mer-2-522]
144	KSYCKR [6mer-2-520]
139	KRFCRR [6mer-2-475]
124	KGLQKK [6mer-2-514]
144	KSYSKK [6mer-2-501]
135	KRICKR [6mer-2-491]
145	RGICKR [6mer-2-507]
146	KRVLKK [6mer-2-510]
136	RGFYRK [6mer-2-509]
127	KGLCRR [6mer-2-498]
128	RWQQRR [6mer-2-474]
154	KWRLKK [6mer-2-479]
153	KLRTKK [6mer-2-517]
146	RGRYKR [6mer-2-523]
123	KGVRRK [6mer-2-493]

Binding affinity [RU]	Binder
148	RQIQKR [6mer-2-485]
144	KQYTRK [6mer-2-521]
145	RLFTKR [6mer-2-499]
121	RRYLKK [6mer-2-483]
135	RSRTRR [6mer-2-477]
131	RGRLRK [6mer-2-473]
135	KQIQRR [6mer-2-519]
126	RVFCRR [6mer-2-511]
133	RSFSKR [6mer-2-468]
136	KWISRR [6mer-2-471]
135	KSLLKK [6mer-2-506]
145	KWYTRK [6mer-2-478]
146	KVYRRK [6mer-2-488]
123	RWYCRK [6mer-2-515]
146	RQQQKK [6mer-2-516]
121	KQQSKK [6mer-2-486]
148	RWYTKR [6mer-2-484]
146	KRICRR [6mer-2-500]

From US20250011363A1, “OPTIMIZED SHORTENED PEPTIDE THAT BINDS TO ACETYLCHOLINE RECEPTOR, AND USE THEREOF” (SKINMED CO., LTD., priority 2021, published 2025)
